Experimental findings from publication PMC12102759 (2025) are described below.

B1: AZIN2 peptide 1-16 (Antizyme inhibitor 2), 16-mer library wild type / NSP3 ADRP (ORF1ab Nsp3b ADRP, residues 1023-1192) (parent complex)
chain 1: MAGYLSESDFVMVEEG
chain 2: not shown
B2: PRDM14 peptide 196-211 (PR domain zinc finger protein 14), 16-mer library wild type / NSP3 SUD-M (ORF1ab Nsp3c SUD-M, residues 1356-1493) (parent complex)
chain 1: QFTEEDLHFVLYGVTP
chain 2: LPSIISNEKQEILGTVSWNLREMLAHAEETRKLMPVCVETKAIVSTIQRKYKGIKIQEGVVDYGARFYFYTSKTTVASLINTLNDLNETLVTMPLGYVTHGLNLEEAARYMRSLKVPATVSVSSPDAVTAYNGYLTSS
B3: PEX5 peptide 240-255 (Peroxisomal targeting signal 1 receptor), 16-mer library wild type / PEX14 Pex14 (PEX14 PEX14, residues 16-84) (parent complex)
chain 1: AEQWAAEFIQQQGTSD
chain 2: TPGSENVLPREPLIATAVKFLQNSRVRQSPLATRRAFLKKKGLTDEEIDMAFQQSGTAADEPSSLGPAT

In one assay the parent is B1. As to the kind of experiment: bait immobilised on MaxiSorp plates (10 µg), library pre-cleared on GST, 2 h binding at 4 °C, five washes; one round per day, days 1-4; value from days 2 and 3.
Regarding chain 1 G3A, the screen value was 0.000627 average fractional NGS count over selection days 2 and 3 (reads of this peptide / all reads for the bait, averaged over ….

As to chain 1 M12L, the screen value was 0.0611 average fractional NGS count over selection days 2 and 3 (reads of this peptide / all reads for the bait, averaged over ….

Turning to chain 1 M12R, the screen value is 0.000896 average fractional NGS count over selection days 2 and 3 (reads of this peptide / all reads for the bait, averaged over ….

On to chain 1 M12E, for which the screen value is 0.000138 average fractional NGS count over selection days 2 and 3 (reads of this peptide / all reads for the bait, averaged over ….

With chain 1 G16T, the screen value is 0.000528 average fractional NGS count over selection days 2 and 3 (reads of this peptide / all reads for the bait, averaged over ….

Consider chain 1 G16K, for which the screen value was 0.000188 average fractional NGS count over selection days 2 and 3 (reads of this peptide / all reads for the bait, averaged over ….

As to chain 1 D9E, the screen value is 0.000316 average fractional NGS count over selection days 2 and 3 (reads of this peptide / all reads for the bait, averaged over ….

chain 1 V13Q: the screen value was 0.000748 average fractional NGS count over selection days 2 and 3 (reads of this peptide / all reads for the bait, averaged over ….

In the case of chain 1 S8Y, the screen value was 0.035 average fractional NGS count over selection days 2 and 3 (reads of this peptide / all reads for the bait, averaged over ….

As for chain 1 S8L, the screen value is 0.000166 average fractional NGS count over selection days 2 and 3 (reads of this peptide / all reads for the bait, averaged over ….

The variants in another assay derive from B2. The assay is described as above.
For the variant chain 1 QFTEEDLHFVLYGVTK [chain 1 P16K], the screen value is 9.04e-05 average fractional NGS count over selection days 2 and 3 (reads of this peptide / all reads for the bait, averaged over ….

As for chain 1 QFTEEDLHFVLYGVTR [chain 1 P16R], the screen value was 6.57e-05 average fractional NGS count over selection days 2 and 3 (reads of this peptide / all reads for the bait, averaged over ….

For the variant chain 1 QFTEEDLHFVLYGVTV [chain 1 P16V], the screen value was 0.000126 average fractional NGS count over selection days 2 and 3 (reads of this peptide / all reads for the bait, averaged over ….

In the case of chain 1 QFTEEDLHFVLYGVTE [chain 1 P16E], the screen value is 9.32e-05 average fractional NGS count over selection days 2 and 3 (reads of this peptide / all reads for the bait, averaged over ….

Regarding chain 1 QFTEEDLHFVLYGVTF [chain 1 P16F], the screen value is 0.000936 average fractional NGS count over selection days 2 and 3 (reads of this peptide / all reads for the bait, averaged over ….

As for chain 1 QFTEEDLHFVLYGVTS [chain 1 P16S], the screen value was 0.145 average fractional NGS count over selection days 2 and 3 (reads of this peptide / all reads for the bait, averaged over ….

Regarding chain 1 QFTEEDLHFVLYGVTD [chain 1 P16D], the screen value is 0.004 average fractional NGS count over selection days 2 and 3 (reads of this peptide / all reads for the bait, averaged over ….

Turning to chain 1 QFTEEDLHFVLYGVTY [chain 1 P16Y], the screen value is 0.000111 average fractional NGS count over selection days 2 and 3 (reads of this peptide / all reads for the bait, averaged over ….

In the case of chain 1 QFTEEDLHFVLYGVTH [chain 1 P16H], the screen value is 0.000235 average fractional NGS count over selection days 2 and 3 (reads of this peptide / all reads for the bait, averaged over ….

With chain 1 QFTEEDLHFVLYGVTL [chain 1 P16L], the screen value is 0.00707 average fractional NGS count over selection days 2 and 3 (reads of this peptide / all reads for the bait, averaged over ….

With chain 1 QFTEEDLHFVLEGVTP [chain 1 Y12E], the screen value is 0.000104 average fractional NGS count over selection days 2 and 3 (reads of this peptide / all reads for the bait, averaged over ….

Turning to chain 1 QFTEEDLHFVLMGVTP [chain 1 Y12M], the screen value is 4.44e-05 average fractional NGS count over selection days 2 and 3 (reads of this peptide / all reads for the bait, averaged over ….

In the case of chain 1 QFTEEDRHFVLYGVTP [chain 1 L7R], the screen value was 7.05e-05 average fractional NGS count over selection days 2 and 3 (reads of this peptide / all reads for the bait, averaged over ….

In the case of chain 1 QFSEEDLHFVLYGVTP [chain 1 T3S], the screen value is 0.000238 average fractional NGS count over selection days 2 and 3 (reads of this peptide / all reads for the bait, averaged over ….

Regarding chain 1 QFTQEDLHFVLYGVTP [chain 1 E4Q], the screen value is 4.52e-05 average fractional NGS count over selection days 2 and 3 (reads of this peptide / all reads for the bait, averaged over ….

Take chain 1 QFTEEELHFVLYGVTP [chain 1 D6E]: the screen value was 0.0721 average fractional NGS count over selection days 2 and 3 (reads of this peptide / all reads for the bait, averaged over ….

Take chain 1 QFTEEALHFVLYGVTP [chain 1 D6A]: the screen value is 6.63e-05 average fractional NGS count over selection days 2 and 3 (reads of this peptide / all reads for the bait, averaged over ….

As for chain 1 QFTEEVLHFVLYGVTP [chain 1 D6V], the screen value was 5.37e-05 average fractional NGS count over selection days 2 and 3 (reads of this peptide / all reads for the bait, averaged over ….

As for chain 1 QFTEEGLHFVLYGVTP [chain 1 D6G], the screen value is 5.78e-05 average fractional NGS count over selection days 2 and 3 (reads of this peptide / all reads for the bait, averaged over ….

With chain 1 QFTEEDLVFVLYGVTP [chain 1 H8V], the screen value was 0.000167 average fractional NGS count over selection days 2 and 3 (reads of this peptide / all reads for the bait, averaged over ….

With chain 1 QFTEEDLAFVLYGVTP [chain 1 H8A], the screen value was 0.00113 average fractional NGS count over selection days 2 and 3 (reads of this peptide / all reads for the bait, averaged over ….

Consider chain 1 QFTEEDLKFVLYGVTP [chain 1 H8K], for which the screen value was 0.000229 average fractional NGS count over selection days 2 and 3 (reads of this peptide / all reads for the bait, averaged over ….

As to chain 1 QFTEEDLRFVLYGVTP [chain 1 H8R], the screen value was 0.0209 average fractional NGS count over selection days 2 and 3 (reads of this peptide / all reads for the bait, averaged over ….

For chain 1 QFTEEDLEFVLYGVTP [chain 1 H8E], the screen value is 4.27e-05 average fractional NGS count over selection days 2 and 3 (reads of this peptide / all reads for the bait, averaged over ….

On to chain 1 QFTEEDLMFVLYGVTP [chain 1 H8M], for which the screen value is 0.194 average fractional NGS count over selection days 2 and 3 (reads of this peptide / all reads for the bait, averaged over ….

As to chain 1 QFTEEDLNFVLYGVTP [chain 1 H8N], the screen value is 0.00229 average fractional NGS count over selection days 2 and 3 (reads of this peptide / all reads for the bait, averaged over ….

chain 1 QFTEEDLYFVLYGVTP [chain 1 H8Y]: the screen value was 5.98e-05 average fractional NGS count over selection days 2 and 3 (reads of this peptide / all reads for the bait, averaged over ….

Consider chain 1 QFTEEDLLFVLYGVTP [chain 1 H8L], for which the screen value was 0.000127 average fractional NGS count over selection days 2 and 3 (reads of this peptide / all reads for the bait, averaged over ….

For chain 1 QFTEEDLIFVLYGVTP [chain 1 H8I], the screen value is 8.91e-05 average fractional NGS count over selection days 2 and 3 (reads of this peptide / all reads for the bait, averaged over ….

For the variant chain 1 QFTEEDLTFVLYGVTP [chain 1 H8T], the screen value is 0.000106 average fractional NGS count over selection days 2 and 3 (reads of this peptide / all reads for the bait, averaged over ….

In the case of chain 1 QFTEEDLHFVLYGITP [chain 1 V14I], the screen value was 7.71e-05 average fractional NGS count over selection days 2 and 3 (reads of this peptide / all reads for the bait, averaged over ….

On to chain 1 QFTEEDLHFVLYGLTP [chain 1 V14L], for which the screen value was 4.25e-05 average fractional NGS count over selection days 2 and 3 (reads of this peptide / all reads for the bait, averaged over ….

Variants of B3 are the subject of a further assay. As to the kind of experiment: proteomic peptide phage display deep mutational scan (ProP-PD DMS): M13 P8 16-mer library selected against immobilised GST-tagged bait for four days (rounds), NGS of the eluted pools per day and pseudo-replica; bait immobilised on MaxiSorp plates (10 µg), library pre-cleared on GST, 2 h binding at 4 °C, five washes; one round per day, days 1-4; value from days 2 and 3.
chain 1 AEQWAAEFIQQQGVSD [chain 1 T14V]: the screen value was 0.000546 average fractional NGS count over selection days 2 and 3 (reads of this peptide / all reads for the bait, averaged over ….

As to chain 1 YEQWAAEFIQQQGTSD [chain 1 A1Y], the screen value is 0.017 average fractional NGS count over selection days 2 and 3 (reads of this peptide / all reads for the bait, averaged over ….

For the variant chain 1 DEQWAAEFIQQQGTSD [chain 1 A1D], the screen value is 0.00705 average fractional NGS count over selection days 2 and 3 (reads of this peptide / all reads for the bait, averaged over ….

Regarding chain 1 NEQWAAEFIQQQGTSD [chain 1 A1N], the screen value was 0.00349 average fractional NGS count over selection days 2 and 3 (reads of this peptide / all reads for the bait, averaged over ….

Take chain 1 MEQWAAEFIQQQGTSD [chain 1 A1M]: the screen value was 0.000375 average fractional NGS count over selection days 2 and 3 (reads of this peptide / all reads for the bait, averaged over ….

As to chain 1 AEQWAAEFIPQQGTSD [chain 1 Q10P], the screen value is 0.00113 average fractional NGS count over selection days 2 and 3 (reads of this peptide / all reads for the bait, averaged over ….

Take chain 1 AEQWAAVFIQQQGTSD [chain 1 E7V]: the screen value is 0.000633 average fractional NGS count over selection days 2 and 3 (reads of this peptide / all reads for the bait, averaged over ….

Consider chain 1 AEQWAAEFVQQQGTSD [chain 1 I9V], for which the screen value was 0.00275 average fractional NGS count over selection days 2 and 3 (reads of this peptide / all reads for the bait, averaged over ….

For chain 1 AEQWAAEFEQQQGTSD [chain 1 I9E], the screen value was 0.00149 average fractional NGS count over selection days 2 and 3 (reads of this peptide / all reads for the bait, averaged over ….

Regarding chain 1 AEQWAAEFNQQQGTSD [chain 1 I9N], the screen value is 0.00185 average fractional NGS count over selection days 2 and 3 (reads of this peptide / all reads for the bait, averaged over ….

As for chain 1 AEQWAWEFIQQQGTSD [chain 1 A6W], the screen value is 0.00422 average fractional NGS count over selection days 2 and 3 (reads of this peptide / all reads for the bait, averaged over ….

As to chain 1 AEQWAEEFIQQQGTSD [chain 1 A6E], the screen value was 0.000449 average fractional NGS count over selection days 2 and 3 (reads of this peptide / all reads for the bait, averaged over ….

Take chain 1 AEQWAAEFIQAQGTSD [chain 1 Q11A]: the screen value is 0.00173 average fractional NGS count over selection days 2 and 3 (reads of this peptide / all reads for the bait, averaged over ….

On to chain 1 AEQWAAEFIQQQHTSD [chain 1 G13H], for which the screen value is 0.00793 average fractional NGS count over selection days 2 and 3 (reads of this peptide / all reads for the bait, averaged over ….

Regarding chain 1 AEQWQAEFIQQQGTSD [chain 1 A5Q], the screen value is 0.00841 average fractional NGS count over selection days 2 and 3 (reads of this peptide / all reads for the bait, averaged over ….

Turning to chain 1 AEQWYAEFIQQQGTSD [chain 1 A5Y], the screen value was 0.00174 average fractional NGS count over selection days 2 and 3 (reads of this peptide / all reads for the bait, averaged over ….

For chain 1 AETWAAEFIQQQGTSD [chain 1 Q3T], the screen value was 0.00148 average fractional NGS count over selection days 2 and 3 (reads of this peptide / all reads for the bait, averaged over ….
